Target: T1, pcGAS full-length (pcGASFL) (Sus scrofa (porcine), UniProt I3LM39 1-495)
T1 sequence: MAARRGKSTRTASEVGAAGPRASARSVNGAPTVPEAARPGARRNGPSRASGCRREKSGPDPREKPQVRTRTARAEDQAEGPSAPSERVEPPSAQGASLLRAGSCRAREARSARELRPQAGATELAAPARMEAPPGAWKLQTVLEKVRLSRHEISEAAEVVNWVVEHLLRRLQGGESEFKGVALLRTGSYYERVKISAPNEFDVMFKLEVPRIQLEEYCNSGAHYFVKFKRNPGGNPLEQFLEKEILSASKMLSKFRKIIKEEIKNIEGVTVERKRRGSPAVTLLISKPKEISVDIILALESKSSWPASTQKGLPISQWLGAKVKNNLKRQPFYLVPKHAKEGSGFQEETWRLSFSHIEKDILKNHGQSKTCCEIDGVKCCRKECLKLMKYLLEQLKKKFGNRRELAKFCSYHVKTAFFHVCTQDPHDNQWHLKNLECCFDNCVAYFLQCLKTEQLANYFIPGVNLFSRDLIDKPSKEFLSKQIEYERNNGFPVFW
Test: EMSA; pcGAS dose series; EMSA: 50 uM ISD45, pcGAS at DNA:protein 1:1 to 1:32, RT 1 h, 1% agarose in 40 mM Tris-HCl pH 9.2; pull-down: pcGAS + 3C in 50 mM HEPES pH 7.5, 3 mM EDTA, 150 mM NaCl, 0.005% Tween-20, 10 mM DTT at 37 C 2 h, then 4 h with HSV60 streptavidin beads
Conditions: protein: recombinant; tags: N-term His6-SUMO-FLAG, C-term HA (SUMO kept on full-length protein); blunt

B1: ISD45 (dsDNA)
DNA 1: TACAGATCTACTAGTGATCTATGACTGATCTGTACATGATCTACA
DNA 2: TGTAGATCATGTACAGATCAGTCATAGATCACTAGTAGATCTGTA
**Q.** Does B1 bind?
**A.** binds

Reference: article PMC10521975, “Species-specific cleavage of cGAS by picornavirus protease 3C disrupts mitochondria DNA-mediated immune sensing”
